Results published in patent publication US20260265358A1 (BYOMASS, published 2026).

T1: Activin A (ligand of the Activin 2B Receptor/SMAD reporter assay) (UniProt P08476 311-426)
T1 sequence (looked up): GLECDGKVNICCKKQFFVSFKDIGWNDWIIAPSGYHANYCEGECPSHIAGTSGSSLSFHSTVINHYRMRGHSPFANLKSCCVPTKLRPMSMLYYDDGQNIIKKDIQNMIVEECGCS

T2: Human Activin A Fc (human, UniProt P03970 309-424 (pig entry))
T2 construct: also called human Activin A-Fc fusion; human Activin A-Fc antigen; not shown: Fc part
T2 sequence: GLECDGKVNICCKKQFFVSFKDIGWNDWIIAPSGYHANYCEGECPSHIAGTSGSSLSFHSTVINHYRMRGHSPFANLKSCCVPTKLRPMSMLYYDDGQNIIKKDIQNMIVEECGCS

T3: Human GDNF (human, UniProt P39905 78-211)
T3 sequence (looked up): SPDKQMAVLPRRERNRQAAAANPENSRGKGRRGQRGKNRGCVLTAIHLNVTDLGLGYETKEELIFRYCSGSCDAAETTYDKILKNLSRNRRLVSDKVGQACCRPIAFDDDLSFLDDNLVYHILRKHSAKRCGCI

T4: BMP9 (UniProt Q9UK05 320-429)
T4 sequence (looked up): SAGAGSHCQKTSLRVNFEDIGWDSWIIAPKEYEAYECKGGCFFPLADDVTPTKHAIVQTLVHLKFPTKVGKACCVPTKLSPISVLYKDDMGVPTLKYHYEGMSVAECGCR

T5: GDF15 Fc (UniProt Q99988 197-308, limits assumed)
T5 construct: not shown: Fc part
T5 sequence (looked up): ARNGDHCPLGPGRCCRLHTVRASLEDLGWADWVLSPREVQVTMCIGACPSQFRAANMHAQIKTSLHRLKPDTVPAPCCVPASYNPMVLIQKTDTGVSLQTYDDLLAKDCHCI

T6: BMP10 (UniProt O95393 317-424)
T6 sequence (looked up): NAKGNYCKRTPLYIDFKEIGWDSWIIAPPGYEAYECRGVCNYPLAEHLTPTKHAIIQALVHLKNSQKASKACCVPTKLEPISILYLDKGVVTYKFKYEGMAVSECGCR

T7: Human GDF10 (human, UniProt P55107 369-478)
T7 sequence (looked up): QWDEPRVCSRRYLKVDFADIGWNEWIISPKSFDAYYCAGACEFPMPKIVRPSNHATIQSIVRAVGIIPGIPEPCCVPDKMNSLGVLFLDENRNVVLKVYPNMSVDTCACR

T8: Activin B (UniProt P09529 293-407)
T8 sequence (looked up): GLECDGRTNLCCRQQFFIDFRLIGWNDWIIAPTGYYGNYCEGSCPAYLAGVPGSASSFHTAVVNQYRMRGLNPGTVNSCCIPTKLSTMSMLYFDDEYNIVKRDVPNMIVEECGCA


How the values were obtained:
[1] = molecular target: T1, Activin A (ligand of the Activin 2B …); experiment: cell-based or functional assay
Human Activin A Fc = molecular target: T2, Human Activin A Fc; experiment: Octet BLI, IgG, avid
Experimental: ForteBio affinity measurements were performed on an Octet HTX generally as previously described (see, e.g., Estep et al, Mabs 5(2), 270-278 (2013)). Briefly, ForteBio affinity measurements were performed by loading IgGs on-line onto AHC sensors. Sensors were equilibrated off-line in assay buffer for 30 min and then monitored on-line for 60 seconds for baseline establishment. Sensors with loaded IgGs were exposed to 100 nM antigen for 3 minutes, and afterwards were transferred to assay buffer for 3 min for off-rate measurement. All kinetics were analyzed using the 1:1 binding model.
Binding affinity and epitope binning assays were performed with a ForteBio instrument as described herein.

Human GDNF = molecular target: T3, Human GDNF; experiment: Octet BLI, IgG, avid
BMP9 = molecular target: T4, BMP9; experiment: Octet BLI, IgG, avid
GDF15 Fc = molecular target: T5, GDF15 Fc; experiment: Octet BLI, IgG, avid
BMP10 = molecular target: T6, BMP10; experiment: Octet BLI, IgG, avid
Human GDF10 = molecular target: T7, Human GDF10; experiment: Octet BLI, IgG, avid
Activin B [2] = molecular target: T8, Activin B; experiment: Octet BLI, IgG, avid
Human GDF8 = Human GDF8 (human, UniProt O14793 267-375); experiment: Octet BLI, IgG, avid
Human GDF11 = Human GDF11 (human, UniProt O95390 299-407); experiment: Octet BLI, IgG, avid
Activin B [3] = molecular target: T8, Activin B; experiment: cell-based or functional assay

Chain of Human GDF11 (O95390 299-407 limits assumed): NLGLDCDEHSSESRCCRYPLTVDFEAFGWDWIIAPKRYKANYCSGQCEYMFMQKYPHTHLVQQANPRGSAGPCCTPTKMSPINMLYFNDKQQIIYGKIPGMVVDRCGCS

Binder | Activin A-ActRIIB SMAD IC50 pM [1] [pM] | Kd (Human Activin A Fc) [nM] | binding result (Human GDNF) | binding result (BMP9) | binding result (GDF15 Fc) | binding result (BMP10) | binding result (Human GDF10) | Kd (Activin B [2]) [nM] | binding result (Human GDF8) | binding result (Human GDF11) | binding result (Activin B [2]) | Activin B-ActRIIB SMAD IC50 pM (Activin B [3]) [pM] | Kd (Human GDF11) [nM]
anti-Activin A antibody Clone M (IgG) (antibody, V domains shown, IgG format; also called Antibody M) VH: QLQLQESGPGLVKPSETLSLTCTVSGGSISSSDYYWGWIRQPPGKGLEWIGSIYYPANTYYNPSLKSRVTISVDTSKNQFSLKLSSVTAADTAVYYCARGYWNYGMDVWGQGTTVTVSS VL: not shown | 719 | 1 | no binding (tested: 100 nM antigen) | no binding (tested: 100 nM antigen) | no binding (tested: 100 nM antigen) | no binding (tested: 100 nM antigen) | no binding (tested: 100 nM antigen) | 9.58 | no binding (tested: 100 nM antigen) | no binding (tested: 100 nM antigen) |  |  | 
anti-Activin A antibody Clone N (IgG) (antibody, V domains shown, IgG format; also called Antibody N) VH: QLQLQESGPGLVKPSETLSLTCTVSGGSISSSDYYWGWIRQPPGKGLEWIGSIYYPASTYYNPSLKSRVTISVDTSKNQFSLKLSSVTAADTAVYYCARGYWNYGMDVWGQGTTVTVSS VL: not shown | 241 | 1.26 | no binding (tested: 100 nM antigen) | no binding (tested: 100 nM antigen) | no binding (tested: 100 nM antigen) | no binding (tested: 100 nM antigen) | no binding (tested: 100 nM antigen) | 6.98 | no binding (tested: 100 nM antigen) | no binding (tested: 100 nM antigen) |  |  | 
anti-Activin A antibody Clone D (IgG) (antibody, V domains shown, IgG format; also called Antibody D) VH: QVQLVQSGAEVKKPGASVKVSCKASGYTFFGYSMHWVRQAPGQGLEWMGVINPSSGDTNYAQKFQGRVTMTRDTSISTAYMELSRLRSDDTAVYYCARARDIAALGLGAFDYWGQGTLVTVSS VL: not shown |  | 0.515 | no binding (tested: 100 nM antigen) | no binding (tested: 100 nM antigen) | no binding (tested: 100 nM antigen) | no binding (tested: 100 nM antigen) | no binding (tested: 100 nM antigen) | 153 | no binding (tested: 100 nM antigen) |  |  |  | 23.4
anti-Activin A antibody Clone F (IgG) (antibody, V domains shown, IgG format; also called Antibody F) VH: QVQLVQSGAEVKKPGASVKVSCKASGYTFTGYHIHWVRQVPGQGLEWMGVISAYSGDTNYAQKLQGRVTMTTDTSTSTAYMELRSLRSDDTAVYYCARARDIAALGLGAFDYWGQGTLVTVSS VL: EIVLTQSPATLSVSPGERATLSCRASQSVSSNLAWYQQKPGQAPRLLIYGASDRATGIPARFSGSGSGTEFTLTISSLQSEDFAVYYCIQYSNYPRTFGGGTKVEIKR |  | 0.492 | no binding (tested: 100 nM antigen) | no binding (tested: 100 nM antigen) | no binding (tested: 100 nM antigen) | no binding (tested: 100 nM antigen) | no binding (tested: 100 nM antigen) | 80.1 | no binding (tested: 100 nM antigen) |  |  | 24900 | 18.7
anti-Activin A antibody Clone R (IgG) (antibody, V domains shown, IgG format; also called Antibody R) VH: QVQLVQSGAEVKKPGSSVKVSCKASGGSFSPYTISWVRQAPGQGLEWMGGIILTSGTANYAQKFQGRVTITADESTSTAYMELSSLRSEDTAVYYCARGGPLSGWRASYYYWGQGTLVTVSS VL: not shown |  | 0.6 | no binding (tested: 100 nM antigen) | no binding (tested: 100 nM antigen) | no binding (tested: 100 nM antigen) | no binding (tested: 100 nM antigen) | no binding (tested: 100 nM antigen) |  | no binding (tested: 100 nM antigen) | no binding (tested: 100 nM antigen) | no binding (tested: 100 nM antigen) |  | 

Further lines, results first:

Activin A-ActRIIB SMAD IC50 pM [1] [pM] | Kd (Human Activin A Fc) [nM] | binding result (Human GDNF) | binding result (BMP9) | binding result (GDF15 Fc) | binding result (BMP10) | binding result (Human GDF10) | Kd (Activin B [2]) [nM] | binding result (Human GDF8) | binding result (Human GDF11) | binding result (Activin B [2]) | Activin B-ActRIIB SMAD IC50 pM (Activin B [3]) [pM] | Kd (Human GDF11) [nM] | Binder
 | 1.28 | no binding (tested: 100 nM antigen) | no binding (tested: 100 nM antigen) | no binding (tested: 100 nM antigen) | no binding (tested: 100 nM antigen) | no binding (tested: 100 nM antigen) |  | no binding (tested: 100 nM antigen) | no binding (tested: 100 nM antigen) |  |  |  | anti-Activin A antibody Clone P (IgG) (antibody, V domains shown, IgG format; also called Antibody P) VH: QVQLVQSGAEVKKPGSSVKVSCKASGGTFDDYAISWVRQAPGQGLEWMGGIIPRFGIANYAQKFQGRVTITADESTSTAYMELSSLRSEDTAVYYCARPPSSGSDWGQGTLVTVSS VL: DIQMTQSPSSVSASVGDRVTITCRASQGIDSWLAWYQQKPGKAPKLLIYAASSLQSGVPSRFSGSGSGTDFTLTISSLQPEDFATYYCQQVHSFPITFGGGTKVEIKR
5400 | 0.442 | no binding (tested: 100 nM antigen) | no binding (tested: 100 nM antigen) | no binding (tested: 100 nM antigen) | no binding (tested: 100 nM antigen) | no binding (tested: 100 nM antigen) |  | no binding (tested: 100 nM antigen) | no binding (tested: 100 nM antigen) | no binding (tested: 100 nM antigen) |  |  | anti-Activin A antibody Clone O (IgG) (antibody, V domains shown, IgG format; also called Antibody O) VH: QVQLVQSGAEVKKPGSSVKVSCKASGGTFSNYDINWVRQAPGQGLEWMGGIIPVFGTAAYAQKFQGRVTITADESTSTAYMELSSLRSEDTAVYYCAREARDGYRYAFQHWGQGTLVTVSS VL: not shown
 | 0.477 | no binding (tested: 100 nM antigen) | no binding (tested: 100 nM antigen) | no binding (tested: 100 nM antigen) | no binding (tested: 100 nM antigen) | no binding (tested: 100 nM antigen) | 148 | no binding (tested: 100 nM antigen) |  |  | > 100000 | 12.7 | anti-Activin A antibody Clone C (IgG) (antibody, V domains shown, IgG format) VH: QVQLVQSGAEVKKPGASVKVSCKASGYTFPGYHMHWVRQAPGQGLEWMGVINPSSGDTNYAQKFQGRVTMTRDTSISTAYMELSRLRSDDTAVYYCARARDIAALGLGAFDYWGQGTLVTVSS VL: EIVLTQSPGTLSLSPGERATLSCRASQSVSSSYLAWYQQKPGQAPRLLIYGASSRAGGIPDRFSGSGSGTDFTLTISRLEPEDFAVYYCQQYVAYPRTFGGGTKVEIKR
41.7 |  |  |  |  |  |  |  |  |  |  |  |  | anti-Activin A antibody Clone J (IgG) (antibody, V domains shown) VH: EVQLVQSGAEVKKPGSSVKVSCKASGGTFSLYAISWVRQAPGQGLEWMGGIIPYFGTANYAQKFQGRVTITADESTSTAYMELSSLRSEDTAVYYCARGGSGYSTSWGSSLYWGQGTLVTVSS VL: EIVLTQSPGTLSLSPGERATLSCRASQSVSSSYLAWYQQKPGQAPRLLIYGAFSRATGIPDRFSGSGSGTDFTLTISRLEPEDFAVYYCQQSGVFPYTFGGGTKVEIKR
